Experimental data published in US20240091321A1.

Key:
[1] = biological target: Insulin Receptor; assay: SPR; data not shown
[2] = biological target: CI-MPR receptor; assay: CIMPR binding assay, PPT1 conditioned media, curves starting at 25 nM, bound PPT1 activity; the table prints no units, units of the axes
[3] = biological target: CI-MPR receptor; assay: CIMPR binding assay, PPT1 conditioned media, dilution starting at 50 nM, bound PPT1 activity; the table prints no units, units of the axes

Question: “Insulin (from UniProt P01308 25-54; P01308 90-110) (ligand)” was tested. Which Kd [1] did it give?
Answer: 8 nM

Question: Which results are given for PPT1 control (enzyme)?
Answer: Bmax [2]: 54.5 nmol/mL/h; Kd [2]: 2.71 nM; Bmax [3]: 54.4 nmol/mL/h; Kd [3]: 2.7 nM
